Data set [1] deals with the molecule itself. Put plainly: SEC-MALS; 0.2 ml of his-tagged p15 at 6 mg/ml in 50 mM MES pH 6 on Superdex 200 10/30 in 50 mM MES pH 6. Background: Size exclusion chromatography separates by hydrodynamic size, large species first.
Data set [2] concerns the molecule itself. Put plainly: ITC; dilution experiment, dimer to monomers: p15 at 6 mg/ml (375 μM) in 50 mM MES pH 6 injected into buffer alone, 25°C, dimer dissociation model. (In general: In ITC the heat of successive injections is recorded.)
Data set [3] concerns the molecule itself. Description: cross-linking; BS3, room temperature, SDS-PAGE; protein at 6 mg/ml in 50 mM MES pH 6.

Residue numbers refer to the chain shown, from its start.

B1: FIV p15 matrix protein, full-length, with C-terminal 6-His tag (natural protein)
chain: MGNGQGRDWKMAIKRCSNVAVGVGGKSKKFGEGNFRWAIRMANVSTGREPGDIPETLDQLRLVICDLQERREKFGSSKEIDMAIVTLKVFAVAGLLNMTVSTAAAAENMYSQMGLDTRPSMKEAGGKEEGPPQAY
notes: matrix protein p15, the N-terminal subunit of the Gag polyprotein of Feline Immunodeficiency Virus, Petaluma strain (plasmid FIV-34TF10); not myristoylated; also called p15-His; full-length p15; not shown: His6, C-terminal, kept
As to B1, the “stoichiometry N” value in data set [1] turned out to be 2. Further, the Kd in data set [2] is approximately 10 µM.

B2: FIV p15-Δ120, C-terminal-truncated p15 (truncated after Ser120) with C-terminal 6-His tag (domain or fragment)
chain: MGNGQGRDWKMAIKRCSNVAVGVGGKSKKFGEGNFRWAIRMANVSTGREPGDIPETLDQLRLVICDLQERREKFGSSKEIDMAIVTLKVFAVAGLLNMTVSTAAAAENMYSQMGLDTRPS
notes: matrix protein p15 of the Gag polyprotein of Feline Immunodeficiency Virus, Petaluma strain, truncated after Ser120 (lacks the last 14 residues); residues 2 to 120 seen in the crystal; also called truncated FIV p15; not shown: His6, C-terminal, kept
With B2, the binding result in data set [3] is recorded as “binds”.

B3: FIV p15-Δ120-R40S (domain or fragment)
chain: B2 chain with R40S
notes: matrix protein p15 of the Gag polyprotein of Feline Immunodeficiency Virus, truncated after Ser120 as m3, with Arg40 mutated to serine; Made from the truncated p15 construct
Turning to B3, the binding result in data set [3] is reported as “binds”.

As a reminder, the stoichiometry N is a count of units in the complex or per binding partner. In general, Kd refers to a measure of binding affinity in units of concentration. High values mean weaker binding, low ones tighter binding.

(Values after publication PMC3706335, “Biophysical characterization and crystal structure of the Feline Immunodeficiency Virus p15 matrix protein” (Retrovirology, 2013).)
